These results are taken from patent US20240156864A1 (UNIVERSITY OF NORTH CAROLINA AT CHAPEL HILL, published 2024).

B1: TRAF1 (other)
chain: MASSSGSSPRPAPDENEFPFGCPPTVCQDPKEPRALCCAGCLSENPRNGEDQICPKCRGEDLQSISPGSRLRTQEKAHPEVAEAGIGCPFAGVGCSFKGSPQSVQEHEVTSQTSHLNLLLGFMKQWKARLGCGLESGPMALEQNLSDLQLQAAVEVAGDLEVDCYRAPCSESQEELALQHFMKEKLLAELEGKLRVFENIVAVLNKEVEASHLALATSIHQSQLDRERILSLEQRVVELQQTLAQKDQALGKLEQSLRLMEEASFDGTFLWKITNVTRRCHESACGRTVSLFSPAFYTAKYGYKLCLRLYLNGDGTGKRTHLSLFIVIMRGEYDALLPWPFRNKVTFMLLDQNNREHAIDAFRPDLSSASFQRPQSETNVASGCPLFFPLSKLQSPKHAYVKDDTMFLKCIVETST
notes: Endogenous protein from T cell lysate
B2: THEMIS (other)
chain: MALSLEEFVHSLDLRTLPRVLEIQAGIYLEGSIYEMFGNECCFSTGEVIKITGLKVKKIIAEICEQIEGCESLQPFELPMNFPGLFKIVADKTPYLTMEEITRTIHIGPSRLGHPCFYHQKDIKLENLIIKQGEQIMLNSVEEIDGEIMVSCAVARNHQTHSFNLPLSQEGEFYECEDERIYTLKEIVEWKIPKNRTRTVNLTDFSNKWDSTNPFPKDFYGTLILKPVYEIQGVMKFRKDIIRILPSLDVEVKDITDSYDANWFLQLLSTEDLFEMTSKEFPIVTEVIEAPEGNHLPQSILQPGKTIVIHKKYQASRILASEIRSNFPKRHFLIPTSYKGKFKRRPREFPTAYDLEIAKSEKEPLHVVATKAFHSPHDKLSSVSVGDQFLVHQSETTEVLCEGIKKVVNVLACEKILKKSYEAALLPLYMEGGFVEVIHDKKQYPISELCKQFRLPFNVKVSVRDLSIEEDVLAATPGLQLEEDITDSYLLISDFANPTECWEIPVGRLNMTVQLVSNFSRDAEPFLVRTLVEEITEEQYYMMRRYESSASHPPPRPPKHPSVEETKLTLLTLAEERTVDLPKSPKRHHVDITKKLHPNQAGLDSKVLIGSQNDLVDEEKERSNRGATAIAETFKNEKHQK
notes: Endogenous protein from T cell lysate (Co-IP-MS); also called endogenous THEMIS; TEHMIS [sic]
B3: CD8α (receptor)
chain: not shown
notes: Endogenous protein from T cell lysate; The CARs themselves carry a CD8α stalk; the text says that unique peptides outside the stalk were detected; also called CD8A; CD8 co-receptor
B4: TRAF2 (other)
chain: AAASVTPPGSLELLQPGFSKTLLGTKLEAKYLCSACRNVLRRPFQAQCGHRYCSFCLASILSSGPQNCAACVHEGIYEEGISILESSSAFPDNAARREVESLPAVCPSDGCTWKGTLKEYESCHEGRCPLMLTECPACKGLVRLGEKERHLEHECPERSLSCRHCRAPCCGADVKAHHEVCPKFPLTCDGCGKKKIPREKFQDHVKTCGKCRVPCRFHAIGCLETVEGEKQQEHEVQWLREHLAMLLSSVLEAKPLLGDQSHAGSELLQRCESLEKKTATFENIVCVLNREVERVAMTAEACSRQHRLDQDKIEALSSKVQQLERSIGLKDLAMADLEQKVLEMEASTYDGVFIWKISDFARKRQEAVAGRIPAIFSPAFYTSRYGYKMCLRIYLNGDGTGRGTHLSLFFVVMKGPNDALLRWPFNQKVTLMLLDQNNREHVIDAFRPDVTSSSFQRPVNDMNIASGCPLFCPVSKMEAKNSYVRDDAIFIKAIVDLTGL
notes: as for B1
B5: PIK3CD (enzyme)
chain: MPPGVDCPMEFWTKEENQSVVVDFLLPTGVYLNFPVSRNANLSTIKQLLWHRAQYEPLFHMLSGPEAYVFTCINQTAEQQELEDEQRRLCDVQPFLPVLRLVAREGDRVKKLINSQISLLIGKGLHEFDSLCDPEVNDFRAKMCQFCEEAAARRQQLGWEAWLQYSFPLQLEPSAQTWGPGTLRLPNRALLVNVKFEGSEESFTFQVSTKDVPLALMACALRKKATVFRQPLVEQPEDYTLQVNGRHEYLYGSYPLCQFQYICSCLHSGLTPHLTMVHSSSILAMRDEQSNPAPQVQKPRAKPPPIPAKKPSSVSLWSLEQPFRIELIQGSKVNADERMKLVVQAGLFHGNEMLCKTVSSSEVSVCSEPVWKQRLEFDINICDLPRMARLCFALYAVIEKAKKARSTKKKSKKADCPIAWANLMLFDYKDQLKTGERCLYMWPSVPDEKGELLNPTGTVRSNPNTDSAAALLICLPEVAPHPVYYPALEKILELGRHSECVHVTEEEQLQLREILERRGSGELYEHEKDLVWKLRHEVQEHFPEALARLLLVTKWNKHEDVAQMLYLLCSWPELPVLSALELLDFSFPDCHVGSFAIKSLRKLTDDELFQYLLQLVQVLKYESYLDCELTKFLLDRALANRKIGHFLFWHLRSEMHVPSVALRFGLILEAYCRGSTHHMKVLMKQGEALSKLKALNDFVKLSSQKTPKPQTKELMHLCMRQEAYLEALSHLQSPLDPSTLLAEVCVEQCTFMDSKMKPLWIMYSNEEAGSGGSVGIIFKNGDDLRQDMLTLQMIQLMDVLWKQEGLDLRMTPYGCLPTGDRTGLIEVVLRSDTIANIQLNKSNMAATAAFNKDALLNWLKSKNPGEALDRAIEEFTLSCAGYCVATYVLGIGDRHSDNIMIRESGQLFHIDFGHFLGNFKTKFGINRERVPFILTYDFVHVIQQGKTNNSEKFERFRGYCERAYTILRRHGLLFLHLFALMRAAGLPELSCSKDIQYLKDSLALGKTEEEALKHFRVKFNEALRESWKTKVNWLAHNVSKDNRQ
notes: as for B1
B6: CAR19.28ζ (receptor)
chain: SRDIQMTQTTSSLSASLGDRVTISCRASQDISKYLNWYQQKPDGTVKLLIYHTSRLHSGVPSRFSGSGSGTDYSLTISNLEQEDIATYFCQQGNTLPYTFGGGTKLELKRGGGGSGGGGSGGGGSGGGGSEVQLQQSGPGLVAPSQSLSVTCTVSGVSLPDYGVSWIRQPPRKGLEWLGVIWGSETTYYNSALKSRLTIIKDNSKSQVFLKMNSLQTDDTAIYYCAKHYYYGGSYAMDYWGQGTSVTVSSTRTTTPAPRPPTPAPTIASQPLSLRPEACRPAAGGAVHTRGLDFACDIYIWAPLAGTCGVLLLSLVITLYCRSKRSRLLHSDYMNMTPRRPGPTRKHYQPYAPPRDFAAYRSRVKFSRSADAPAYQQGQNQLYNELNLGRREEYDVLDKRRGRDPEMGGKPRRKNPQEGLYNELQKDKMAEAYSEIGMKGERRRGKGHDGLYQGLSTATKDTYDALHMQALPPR
notes: Expressed in human T cells and pulled down from lysate with the anti-CAR19 Ab; also called CAR.28ζ; CAR19.CD28ζ

One experiment addresses T1, CAR19.BBζ (human, UniProt P01732 138-206; Q07011 214-255; P20963 52-164).
T1 construct: Expressed in human T cells (or Jurkat cells) and pulled down from lysate; also called CAR.BBζ; CAR19.BBC
Nature of the experiment: co-IP with anti-CAR19 Ab from CAR-T cell lysate, LC-MS/MS. As to the method:
(§1) For Immunoprecipitation (IP), assay, proteins from T cells were extracted in RIPA lysis buffer (Thermo Scientific) supplemented with 1×protease/phosphatase Inhibitors (Thermo Scientific). Equal amount of total proteins was used for IP. Rabbit/mouse IgG (Thermo Scientific) with protein G magnetic beads (Bio-Rad) was used to pre-clear the lysate and anti-CAR19, anti-HA or anti-FLAG Abs were incubated with lysate for 16 hours, and protein G beads were then used for the pull-down. IP products were dissolved in 2× SDS Laemmli buffer for Western blot analysis. […] 2× SDS Laemmli buffer without β-mercaptoethanol was used to dissolve the IP product, and β-mercaptoethanol was supplemented before western blot.
For mass spectrometry (MS) assays, immunoprecipitated samples (3 biological replicates) were subjected to SDS-PAGE and stained with Coomassie blue dye. Lanes for each sample were excised and the proteins were reduced, alkylated, and in-gel digested with trypsin overnight at 37° C. Peptides were extracted, desalted with C18 spin columns (Pierce) and dried via vacuum centrifugation. Peptide samples were stored at −80° C. until further analysis. The peptide samples were analyzed by liquid chromatography coupled to tandem mass spectrometry (LC-MS/MS) in 3 separated experiments using a Thermo Easy nLC 1000 coupled to a QExactive HF or a Waters nanoAcquity coupled to a Thermo LTQ-Orbitrap Velos. Samples were injected onto a PepMap C18 column (75 μm id×25 cm, 2 μm particle size) (Thermo Scientific) and separated over a 90 or 120 min gradient where mobile phase A was 0.1% formic acid in water and mobile phase B consisted of 0.1% formic acid in ACN. The LTQ-Orbitrap Velos was operated in data-dependent mode where the 10 most abundant precursors were selected for CID fragmentation (35% CE). The QExactive HF was operated in data-dependent mode where the 15 most intense precursors were selected for subsequent HCD fragmentation (27 NCE).

The experiment “TRAF2” has as its target B4. Nature of the experiment: co-IP with anti-CAR19 Ab, LC-MS/MS; 'Values not identified are denoted by -'. How it is done: as §1
(§2) For mass spectrometry (MS) assays, immunoprecipitated samples (3 biological replicates) were subjected to SDS-PAGE and stained with Coomassie blue dye. Lanes for each sample were excised and the proteins were reduced, alkylated, and in-gel digested with trypsin overnight at 37° C. Peptides were extracted, desalted with C18 spin columns (Pierce) and dried via vacuum centrifugation. Peptide samples were stored at −80° C. until further analysis. The peptide samples were analyzed by liquid chromatography coupled to tandem mass spectrometry (LC-MS/MS) in 3 separated experiments using a Thermo Easy nLC 1000 coupled to a QExactive HF or a Waters nanoAcquity coupled to a Thermo LTQ-Orbitrap Velos. […]

The experiment “TRAF1” addresses B1. Described as above. As to the method:
as §1, §2

The target in another experiment is T2, CD4 co-receptor (human, UniProt P01730 26-458).
T2 construct: Endogenous protein from T cell lysate
In words: co-IP with anti-CAR19 Ab, LC-MS/MS.

T1 sequence (P20963 other isoform, or with tags, fused parts or gaps): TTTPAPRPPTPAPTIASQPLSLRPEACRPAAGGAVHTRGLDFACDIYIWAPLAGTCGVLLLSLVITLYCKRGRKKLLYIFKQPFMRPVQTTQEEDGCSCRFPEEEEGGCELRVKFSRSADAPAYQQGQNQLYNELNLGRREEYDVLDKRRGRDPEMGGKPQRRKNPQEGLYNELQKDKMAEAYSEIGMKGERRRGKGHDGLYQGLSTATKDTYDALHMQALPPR

Take B1: in the experiment with CAR19.BBζ, the Area worked out at 2.31e+08, the Coverage worked out at 15% and the “Peptides (number identified)” value turned out to be 4.
With B2, in the experiment with CAR19.BBζ, the Area amounted to 3.78e+07, the Coverage was 4% and the “Peptides (number identified)” value was determined as 2.
In the same order, the values of B3 are 7.34e+08, 32% and 6.
As to B4, in the experiment with CAR19.BBζ, the Area came out at 5.52e+07, the Coverage came out at 14% and the “Peptides (number identified)” value turned out to be 6.
In the same order, the values of B5 are 5.1e+06, 2% and 2.
For B6, the binding result with TRAF2, with TRAF1 and with CD4 co-receptor was “no binding” throughout.
